One block for each binder: values may come before it.
What was measured:
[1] = target: T1, human epidermal growth factor receptor (EGFR) (human, UniProt P00533 25-1210); experiment: flow cytometry on A431 cells
T1 construct: whole, on cells; also called HER-1; ErbB1
Experimental: The purified, monomeric humanized antibody variants were tested for binding to human epidermal growth factor receptor (EGFR, also referred to in the literature as HER-1 or ErbB1) on the A431 human epidermal cell line, using a flow cytometry-based assay. 200,000 cells (e.g., from human A431 cell line) in 180 μl FACS buffer (PBS containing 2% FCS and 5 mM EDTA) were transferred to 5 ml polystyrene tubes and 20 μl 10 fold concentrated anti-EGFR antibody (primary antibody) samples (1-5000 ng/ml final concentration) or PBS only were added. After gently mixing the samples, the tubes were incubated at 4° C. for 30 min in the dark. Subsequently, samples were washed twice with FACS buffer and pelleted at 300×g for 3 min. Supernatant was aspirated off and cells were taken up in 50 μl FACS buffer and 2 μl secondary antibody (anti-Fc-specific F(ab′)2-FITC fragments (Jackson Immuno Research Laboratories, USA)) was added and the tubes were incubated at 4° C. for 30 min. Samples were washed twice with FACS buffer and taken up in 500 μl of FACS buffer for analysis by Flow Cytometry. Binding was determined by plotting the geometric mean fluorescence against the antibody concentrations.

[2] = target: T1, human epidermal growth factor receptor …; experiment: flow cytometry on A431 cells, light chain paired with I-HHD

EC50 fold increase relative to ch-ICR62, I-HLA1 and I-HLA2 [1]: 2 fold
B2: humanized ICR62 antibody I-HLA5/I-KC (antibody, human IgG1, V domains shown)
VH: QMQLVQSGPEVKKPGTSVKVSCKASGFTFTDYYMHWVRQAPGQGLEWMGWINPNSGYSTYSPSFQGQVTISADKSISTAYLQWSSLKASDTAMYYCARLSPGGYYVMDAWGQGTTVTVSS
VL: DIQMTQSPSSLSASVGDRVTITCRASQGINNYLNWYQQKPGKAPKRLIYNTNNLQTGVPSRFSGSGSGTEFTLTISSLQPEDFATYYCLQHNSFPTFGQGTKLEIKR

binding result [1]: binds
B7: humanized ICR62 antibody I-HLA/I-KA (antibody, human IgG1, V domains shown)
VH: QVQLVQSGAEVKKPGASVKVSCKASGFTFTDYYMHWVRQAPGQGLEWMGWINPNSGYSTYAQKFQGRVTMTADTSISTAYMELSRLRSDDTAVYYCARLSPGGYYVMDAWGQGTTVTVSS
VL: DIQMTQSPSSLSASVGDRVTITCRASQGINNYLNWYQQKPGKAPKRLIYNTNNLQTGVPSRFSGSGSGTEYTLTISSLQPEDFATYYCLQHNSFPTFGQGTKLEIKR

binding result [1]: binds
B8: humanized ICR62 antibody I-HHC/I-KB (antibody, human IgG1, V domains shown)
VH: QVQLVQSGAEVKKPGSSVKVSCKGSGFTFTDYKIHWVRQAPGQGLEWMGYFNPNSGYSTYNEKFKSRVTITADKSTSTAYMELSSLRSEDTAVYYCARLSPGGYYVMDAWGQGTTVTVSS
VL: DIQMTQSPSSLSASVGDRVTITCKASQNINNYLNWYQQKPGKAPKRLIYNTNNLQTGVPSRFSGSGSGTEYTLTISSLQPEDFATYYCLQHNSFPTFGQGTKLEIKR
notes: I-HHC was also paired with I-KA and the chimeric light chain

EC50 fold increase relative to ch-ICR62, I-HLA1 and I-HLA2 [1]: 2 fold
B10: humanized ICR62 antibody I-HLA3/I-KC (antibody, human IgG1, V domains shown)
VH: QVQLVQSGAEVKKPGASVKVSCKASGYTFTDYYMHWVRQAPGQGLEWMGWINPNSGYSTYSPSFQGQVTISADKSISTAYLQWSSLKASDTAMYYCARLSPGGYYVMDAWGQGTTVTVSS
VL: DIQMTQSPSSLSASVGDRVTITCRASQGINNYLNWYQQKPGKAPKRLIYNTNNLQTGVPSRFSGSGSGTEFTLTISSLQPEDFATYYCLQHNSFPTFGQGTKLEIKR

binding result [1]: binds
B12: humanized ICR62 antibody I-HLA9/I-KC (antibody, human IgG1, V domains shown)
VH: EVQLVQSGAEVKKPGESLKISCKGSGYSFTDYKIHWVRQAPGQGLEWMGYFNPNSGYSTYAQKFQGRVTITADKSTSTAYMELSSLRSEDTAVYYCARLSPGGYYVMDAWGQGTTVTVSS
VL: DIQMTQSPSSLSASVGDRVTITCRASQGINNYLNWYQQKPGKAPKRLIYNTNNLQTGVPSRFSGSGSGTEFTLTISSLQPEDFATYYCLQHNSFPTFGQGTKLEIKR

binding result [1]: binds
B14: humanized ICR62 antibody I-HLA7/I-KC (antibody, human IgG1, V domains shown)
VH: QMQLVQSGPEVKKPGTSVKVSCKASGFTFTDYKIHWVRQARGQRLEWIGWINPNSGYSTYNEKFQGQVTISADKSISTAYLQWSSLKASDTAMYYCARLSPGGYYVMDAWGQGTTVTVSS
VL: DIQMTQSPSSLSASVGDRVTITCRASQGINNYLNWYQQKPGKAPKRLIYNTNNLQTGVPSRFSGSGSGTEFTLTISSLQPEDFATYYCLQHNSFPTFGQGTKLEIKR

binding result [1]: binds
B15: humanized ICR62 antibody I-HHB/I-KC (not glycoengineered) (antibody, V domains shown)
VH: QVQLVQSGAEVKKPGSSVKVSCKGSGFTFTDYKIHWVRQAPGQGLEWMGYFNPNSGYSTYAQKFQGRVTITADKSTSTAYMELSSLRSEDTAVYYCARLSPGGYYVMDAWGQGTTVTVSS
VL: DIQMTQSPSSLSASVGDRVTITCRASQGINNYLNWYQQKPGKAPKRLIYNTNNLQTGVPSRFSGSGSGTEFTLTISSLQPEDFATYYCLQHNSFPTFGQGTKLEIKR
notes: also called I-HHB/KC

binding result [1]: binds
B16: humanized ICR62 antibody I-HHF/I-KC (antibody, human IgG1, V domains shown)
VH: QVQLVQSGAEVKKPGSSVKVSCKGSGFTFTDYKIHWVRQAPGQGLEWMGYFNPNSGYSNYAQKFQGRVTITADKSTSTAYMELSSLRSEDTAVYYCARLSPGGYYVMDAWGQGTTVTVSS
VL: DIQMTQSPSSLSASVGDRVTITCRASQGINNYLNWYQQKPGKAPKRLIYNTNNLQTGVPSRFSGSGSGTEFTLTISSLQPEDFATYYCLQHNSFPTFGQGTKLEIKR

binding result [2]: binds
B17: humanized ICR62 antibody I-HHD/I-KC1 (antibody, human IgG1, V domains shown)
VH: QVQLVQSGAEVKKPGSSVKVSCKASGFTFTDYKIHWVRQAPGQGLEWMGYFNPNSGYSTYAQKFQGRVTITADKSTSTAYMELSSLRSEDTAVYYCARLSPGGYYVMDAWGQGTTVTVSS
VL: DIQMTQSPSSLSASVGDRVTITCRASQGIRNYLNWYQQKPGKAPKRLIYNTNNLQTGVPSRFSGSGSGTEFTLTISSLQPEDFATYYCLQHNSFPTFGQGTKLEIKR

The remaining lines, values behind:

B1: humanized ICR62 antibody I-HLA2/I-KC (antibody, human IgG1, V domains shown)
VH: QVQLVQSGAEVKKPGASVKVSCKASGFTFTDYYMHWVRQAPGQGLEWMGWINPNSGYSTYNEKFQGQVTISADKSISTAYLQWSSLKASDTAMYYCARLSPGGYYVMDAWGQGTTVTVSS
VL: DIQMTQSPSSLSASVGDRVTITCRASQGINNYLNWYQQKPGKAPKRLIYNTNNLQTGVPSRFSGSGSGTEFTLTISSLQPEDFATYYCLQHNSFPTFGQGTKLEIKR
EC50 [1]: ~0.3 µg/mL

B3: humanized ICR62 antibody I-HHG/I-KC (antibody, human IgG1, V domains shown)
VH: QVQLVQSGAEVKKPGSSVKVSCKGSGFTFTDYKIHWVRQAPGQGLEWMGYFNPNSGYATYAQKFQGRVTITADKSTSTAYMELSSLRSEDTAVYYCARLSPGGYYVMDAWGQGTTVTVSS
VL: DIQMTQSPSSLSASVGDRVTITCRASQGINNYLNWYQQKPGKAPKRLIYNTNNLQTGVPSRFSGSGSGTEFTLTISSLQPEDFATYYCLQHNSFPTFGQGTKLEIKR
binding result [1]: binds

B4: humanized ICR62 antibody I-HLA6/I-KC (antibody, human IgG1, V domains shown)
VH: QMQLVQSGPEVKKPGTSVKVSCKASGFTFTDYYMHWVRQAPGQGLEWMGWINPNSGYSTYNEKFQGQVTISADKSISTAYLQWSSLKASDTAMYYCARLSPGGYYVMDAWGQGTTVTVSS
VL: DIQMTQSPSSLSASVGDRVTITCRASQGINNYLNWYQQKPGKAPKRLIYNTNNLQTGVPSRFSGSGSGTEFTLTISSLQPEDFATYYCLQHNSFPTFGQGTKLEIKR
EC50 fold increase relative to ch-ICR62, I-HLA1 and I-HLA2 [1]: 2 fold

B5: humanized ICR62 antibody I-HHD-8/I-KC (antibody, human IgG1, V domains shown)
VH: QVQLVQSGAEVKKPGSSVKVSCKASGFTFTDYKIHWVRQAPGQGLEWMGYFNPNSGTSTYAQKFQGRVTITADKSTSTAYMELSSLRSEDTAVYYCARLSPGGYYVMDAWGQGTTVTVSS
VL: DIQMTQSPSSLSASVGDRVTITCRASQGINNYLNWYQQKPGKAPKRLIYNTNNLQTGVPSRFSGSGSGTEFTLTISSLQPEDFATYYCLQHNSFPTFGQGTKLEIKR
EC50 fold increase relative to I-HHD parent construct [1]: 10 fold

B6: humanized ICR62 antibody I-HHD-10/I-KC (antibody, human IgG1, V domains shown)
VH: QVQLVQSGAEVKKPGSSVKVSCKASGFTFTDYKIHWVRQAPGQGLEWMGYFNPNSGYSTYAQKFQGRVTITADKSTSTAYMELSSLRSEDTAVYYCARLSPGGYYGMDAWGQGTTVTVSS
VL: DIQMTQSPSSLSASVGDRVTITCRASQGINNYLNWYQQKPGKAPKRLIYNTNNLQTGVPSRFSGSGSGTEFTLTISSLQPEDFATYYCLQHNSFPTFGQGTKLEIKR
EC50 fold increase relative to I-HHD parent construct [1]: 10 fold

B9: humanized ICR62 antibody I-HLA1/I-KC (antibody, human IgG1, V domains shown)
VH: QVQLVQSGAEVKKPGASVKVSCKASGFTFTDYYMHWVRQAPGQGLEWMGWINPNSGYSTYSPSFQGQVTISADKSISTAYLQWSSLKASDTAMYYCARLSPGGYYVMDAWGQGTTVTVSS
VL: DIQMTQSPSSLSASVGDRVTITCRASQGINNYLNWYQQKPGKAPKRLIYNTNNLQTGVPSRFSGSGSGTEFTLTISSLQPEDFATYYCLQHNSFPTFGQGTKLEIKR
EC50 [1]: ~0.3 µg/mL

B11: humanized ICR62 antibody I-HLA/I-KB (antibody, human IgG1, V domains shown)
VH: QVQLVQSGAEVKKPGASVKVSCKASGFTFTDYYMHWVRQAPGQGLEWMGWINPNSGYSTYAQKFQGRVTMTADTSISTAYMELSRLRSDDTAVYYCARLSPGGYYVMDAWGQGTTVTVSS
VL: DIQMTQSPSSLSASVGDRVTITCKASQNINNYLNWYQQKPGKAPKRLIYNTNNLQTGVPSRFSGSGSGTEYTLTISSLQPEDFATYYCLQHNSFPTFGQGTKLEIKR
binding result [1]: binds

B13: humanized ICR62 antibody I-HLA4/I-KC (antibody, human IgG1, V domains shown)
VH: QVQLVQSGAEVKKPGASVKVSCKASGYTFTDYYMHWVRQAPGQGLEWMGWINPNSGYSTYNEKFQGQVTISADKSISTAYLQWSSLKASDTAMYYCARLSPGGYYVMDAWGQGTTVTVSS
VL: DIQMTQSPSSLSASVGDRVTITCRASQGINNYLNWYQQKPGKAPKRLIYNTNNLQTGVPSRFSGSGSGTEFTLTISSLQPEDFATYYCLQHNSFPTFGQGTKLEIKR
EC50 fold increase relative to ch-ICR62, I-HLA1 and I-HLA2 [1]: 2 fold

B18: humanized ICR62 antibody I-HLA8/I-KC (antibody, human IgG1, V domains shown)
VH: QMQLVQSGPEVKKPGTSVKVSCKASGFTFTDYKIHWVRQAPGQGLEWMGYFNPNSGYSTYAQKFQGRVTITADKSTSTAYMELSSLRSEDTAVYYCARLSPGGYYVMDAWGQGTTVTVSS
VL: DIQMTQSPSSLSASVGDRVTITCRASQGINNYLNWYQQKPGKAPKRLIYNTNNLQTGVPSRFSGSGSGTEFTLTISSLQPEDFATYYCLQHNSFPTFGQGTKLEIKR
EC50 fold decrease relative to ch-ICR62 [1]: 2 fold

B19: humanized ICR62 antibody I-HHD/I-KC2 (antibody, human IgG1, V domains shown)
VH: QVQLVQSGAEVKKPGSSVKVSCKASGFTFTDYKIHWVRQAPGQGLEWMGYFNPNSGYSTYAQKFQGRVTITADKSTSTAYMELSSLRSEDTAVYYCARLSPGGYYVMDAWGQGTTVTVSS
VL: DIQMTQSPSSLSASVGDRVTITCRASQGINNWLNWYQQKPGKAPKRLIYNTNNLQTGVPSRFSGSGSGTEFTLTISSLQPEDFATYYCLQHNSFPTFGQGTKLEIKR
binding result [2]: binds

B20: humanized ICR62 antibody I-HHD/I-KC3 (antibody, human IgG1, V domains shown)
VH: QVQLVQSGAEVKKPGSSVKVSCKASGFTFTDYKIHWVRQAPGQGLEWMGYFNPNSGYSTYAQKFQGRVTITADKSTSTAYMELSSLRSEDTAVYYCARLSPGGYYVMDAWGQGTTVTVSS
VL: DIQMTQSPSSLSASVGDRVTITCRASQGINNYLGWYQQKPGKAPKRLIYNTNNLQTGVPSRFSGSGSGTEFTLTISSLQPEDFATYYCLQHNSFPTFGQGTKLEIKR
EC50 fold increase relative to I-KC (paired with I-HHD) [1]: 10 fold

B21: chimeric rat-human ICR62 antibody (antibody, human IgG1, V domains shown)
VH: QVNLLQSGAALVKPGASVKLSCKGSGFTFTDYKIHWVKQSHGKSLEWIGYFNPNSGYSTYNEKFKSKATLTADKSTDTAYMELTSLTSEDSATYYCTRLSPGGYYVMDAWGQGASVTVSS
VL: DIQMTQSPSFLSASVGDRVTINCKASQNINNYLNWYQQKLGEAPKRLIYNTNNLQTGIPSRFSGSGSGTDYTLTISSLQPEDFATYFCLQHNSFPTFGAGTKLELKR
notes: also called ch-ICR62; chimeric ICR62
EC50 [1]: ~0.3 µg/mL
EC50 fold lower relative to I-HLA4 [1]: 2 fold

Reference: US20080286277A1 (GLYCART BIOTECHNOLOGY, published 2008)
